Measurements taken from patent US20260116991A1 (HAINAN SIMCERE ZAIMING PHARMACEUTICAL, published 2026).
Where a chain is given by its changes, count along the chain named. Values belong to the binder of their own block, whether it stands above or below them.

Experiments:
[1] = target: T1, murine GPC3-his protein (Sino Biological, Cat. No. 50989-M08B) (murine, UniProt Q8CFZ4 25-558); test: ELISA, coated murine GPC3-His;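 also: antigen coated on plates at 1 µg/mL, test antibody bound for 2 h at 37 °C, detected with HRP-conjugated secondary antibody and TMB substrate after acid stop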
T1 construct: Bought protein; also called murine GPC3 protein
T1 sequence (Q8CFZ4 25-558 limits assumed): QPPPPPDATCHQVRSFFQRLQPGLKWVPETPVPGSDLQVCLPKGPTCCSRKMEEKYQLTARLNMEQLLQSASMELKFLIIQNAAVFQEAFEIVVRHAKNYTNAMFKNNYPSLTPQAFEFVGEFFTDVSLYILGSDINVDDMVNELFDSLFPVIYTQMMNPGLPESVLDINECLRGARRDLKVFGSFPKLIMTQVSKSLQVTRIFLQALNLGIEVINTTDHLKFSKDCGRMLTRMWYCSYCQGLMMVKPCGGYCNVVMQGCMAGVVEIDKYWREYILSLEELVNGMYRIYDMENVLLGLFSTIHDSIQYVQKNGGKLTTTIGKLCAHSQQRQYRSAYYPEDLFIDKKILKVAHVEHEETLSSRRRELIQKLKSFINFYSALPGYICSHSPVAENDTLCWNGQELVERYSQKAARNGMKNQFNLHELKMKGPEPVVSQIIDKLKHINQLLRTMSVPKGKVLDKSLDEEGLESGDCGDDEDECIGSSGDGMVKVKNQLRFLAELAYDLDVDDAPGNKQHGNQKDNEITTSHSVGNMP

[2] = target: T2, monkey GPC3-His protein (monkey); test: ELISA, monkey GPC3-His coated;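 also: Plate-coated antigen at 1 µg/mL, antibody binding 2 h at 37 °C, detected with HRP-labeled secondary antibody and TMB, absorbance at 450 nm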
T2 construct: Bought recombinant protein; also called monkey GPC3 protein

B1: F1.2.14 human-murine chimeric antibody (antibody, human IgG1, kappa, V domains shown)
VH: RVQLQQSGAELVKPGASVRMSCKASGYTFTAYSIEWMKQNLGKSLEWIGNFRPYNDDTKYNENFKGRATLTVEKSSATVYLELSRLTSDDSAVYYCARSGPTDYFDYWGQGTTLIVSS
VL: DIQMTQSPASLSASVGETVTITCRASDNIYSYLAWYQQKQGQSPQLLVYNAKTLAEGVPSRFSGSGSVTQFSLKIISLQPEDFGTYYCQHHFGTPRTFGGGTKLEIKR
OD450 at 0.0001 nM antibody [1]: 0.05 OD450 nm
OD450 at 0.001 nM antibody [1]: 0.05 OD450 nm
OD450 at 0.01 nM antibody [1]: 0.06 OD450 nm
OD450 at 0.1 nM antibody [1]: 0.14 OD450 nm
OD450 at 1 nM antibody [1]: 0.46 OD450 nm
OD450 at 10 nM antibody [1]: 1.2 OD450 nm
OD450 at 100 nM antibody [1]: 1.24 OD450 nm

B3: F1.78.24 human-murine chimeric antibody (antibody, human IgG1, kappa, V domains shown)
VH: QVQLQQSGAELVKPGASVKMSCKASGYTFTTYPIEWMKQNHGKSLEWIGNFHPYNDDTNYNVKFKGKATLTVEKSSSTVYLELSRLTSDDSALYYCARRREYYGSFDVWGTGTTVTVSS
VL: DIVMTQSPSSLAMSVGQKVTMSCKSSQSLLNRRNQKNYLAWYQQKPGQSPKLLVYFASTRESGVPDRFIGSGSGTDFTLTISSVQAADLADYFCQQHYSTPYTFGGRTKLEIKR
OD450 at 0.0001 nM antibody [1]: 0.05 OD450 nm
OD450 at 0.001 nM antibody [1]: 0.06 OD450 nm
OD450 at 0.01 nM antibody [1]: 0.1 OD450 nm
OD450 at 0.1 nM antibody [1]: 0.24 OD450 nm
OD450 at 1 nM antibody [1]: 0.17 OD450 nm
OD450 at 10 nM antibody [1]: 0.34 OD450 nm
OD450 at 100 nM antibody [1]: 0.25 OD450 nm

B5: F1.21.8 human-murine chimeric antibody (antibody, human IgG1, kappa, V domains shown)
VH: EVQLQQSGPELVKPGASVKISCKTSGFLFTGHYMHWVKSSHGNILDWIGYIYPYNAISFYNQKFKGKATLTVDKSSNTAYMELRSLTSEDSAVYYCARGDYGNYVTAYWGQGTLVTVSA
VL: DVLMTQTPLSLPVSLGDQASISCRSSQSIVHSSGNTYLEWYLQKPGQSPKLLIYKVSNRFSGVPDRFSGSGSGTDFTLKISRVEAEDLGVYYCFQGSHLPWTFGGGTKLDIKR
OD450 at 0.0001 nM antibody [1]: 0.05 OD450 nm
OD450 at 0.001 nM antibody [1]: 0.07 OD450 nm
OD450 at 0.01 nM antibody [1]: 0.17 OD450 nm
OD450 at 0.1 nM antibody [1]: 0.76 OD450 nm
OD450 at 1 nM antibody [1]: 1.12 OD450 nm
OD450 at 10 nM antibody [1]: 1.41 OD450 nm
OD450 at 100 nM antibody [1]: 1.84 OD450 nm

B8: F1.9.19 human-murine chimeric antibody (antibody, human IgG1, kappa, V domains shown)
VH: DVQLQESGPGLVKPSQSLSLTCSVTGYSITSGYYWNWIRQFPGNRLEWMAYISYDGINNYNPSLKNRISIARDTSTNQFFLKLNSVTSEDTATYYCATTTEVALFDHWGQGTTLTVSS
VL: B5 VL with M4L, S28N, S32G, S33N, Y41F, V90L, G96A, L99V, D110E
OD450 at 0.0001 nM antibody [1]: 0.05 OD450 nm
OD450 at 0.001 nM antibody [1]: 0.04 OD450 nm
OD450 at 0.01 nM antibody [1]: 0.05 OD450 nm
OD450 at 0.1 nM antibody [1]: 0.05 OD450 nm
OD450 at 1 nM antibody [1]: 0.05 OD450 nm
OD450 at 10 nM antibody [1]: 0.05 OD450 nm
OD450 at 100 nM antibody [1]: 0.07 OD450 nm

The remaining lines, values ahead:

OD450 at 0.0001 nM antibody [1]: 0.05 OD450 nm
OD450 at 0.001 nM antibody [1]: 0.06 OD450 nm
OD450 at 0.01 nM antibody [1]: 0.08 OD450 nm
OD450 at 0.1 nM antibody [1]: 0.75 OD450 nm
OD450 at 1 nM antibody [1]: 0.77 OD450 nm
OD450 at 10 nM antibody [1]: 1.62 OD450 nm
OD450 at 100 nM antibody [1]: 1.32 OD450 nm
B2: F1.145.22 human-murine chimeric antibody (antibody, human IgG1, kappa, V domains shown)
VH: QVQLQQSGTDLARPGASVKLSCKASGYTFTSFGISWVKQRTGQGLEWIGEIYPRSGSPYYNEKFTGKATLTADKSSSTAYMELRSLTSEDSAVYFCAKDFGSSYVFDYWGQGTALTVSS
VL: B1 VL with D27E, A34T, Q42K, V68G, I76N, F92Y, R96P, G100T, E105D, I106L

OD450 at 0.0001 nM antibody [1]: 0.05 OD450 nm
OD450 at 0.001 nM antibody [1]: 0.05 OD450 nm
OD450 at 0.01 nM antibody [1]: 0.06 OD450 nm
OD450 at 0.1 nM antibody [1]: 0.22 OD450 nm
OD450 at 1 nM antibody [1]: 0.17 OD450 nm
OD450 at 10 nM antibody [1]: 0.91 OD450 nm
OD450 at 100 nM antibody [1]: 0.17 OD450 nm
B4: F1.136.7 human-murine chimeric antibody (antibody, human IgG1, kappa, V domains shown)
VH: EVQLQQSGPVMVKPGPSVKISCQTSGFTFTDYYIHWVKQSHGKSLEWIGLVFPYDGGTNYNQKFKDKATLTLDTSSSTAYMELNSLTSEDSAVYYCARAGGFSYALNYWGQGTSVTVSS
VL: DIQMTQSPSSLSASLGGKVTITCKASQDINNYIAWYQHKPGKGPRLLIHFTSTLQPGIPSRFSGSGSGRDYSFSISNLEPEDIATYYCLQYDNLLLTFGAGTKLELKR

OD450 at 0.0001 nM antibody [1]: 0.06 OD450 nm
OD450 at 0.001 nM antibody [1]: 0.13 OD450 nm
OD450 at 0.01 nM antibody [1]: 0.62 OD450 nm
OD450 at 0.1 nM antibody [1]: 2.04 OD450 nm
OD450 at 1 nM antibody [1]: 2.67 OD450 nm
OD450 at 10 nM antibody [1]: 2.6 OD450 nm
OD450 at 100 nM antibody [1]: 3.01 OD450 nm
B6: F1.111.11 human-murine chimeric antibody (antibody, human IgG1, kappa, V domains shown)
VH: EVQLQQSGPELVKPGASVKISCKASGYTFTDYYMNWVKQSHGKSLEWIGDIYPNNGDTTYNQRFKGKATLTVDKSSSTAYMELRSLASEDSAVYYCACPYNNPFGYWGQGTLVTVSA
VL: B5 VL with L3V, I29L, S33N, E39H, Y92F, F94S, G96S, S97T, L99V, D110E

OD450 at 0.0001 nM [2]: 0.24 OD450
OD450 at 0.001 nM [2]: 0.31 OD450
OD450 at 0.01 nM [2]: 0.69 OD450
OD450 at 0.1 nM [2]: 1.92 OD450
OD450 at 1 nM [2]: 2.52 OD450
OD450 at 10 nM [2]: 2.31 OD450
OD450 at 100 nM [2]: 2.41 OD450
B7: F2.152.3 (antibody, human IgG1, kappa, V domains shown)
VH: EVQLQQSGPELVKPGASVKMSCKASGYTFTDYYMTWVKQSHGKSLEWIGRVNPRNGDTTYNQKFEGRATLTLDKSLSTAFMQLNSLTSEDSAVYYCINSKGHFDYWGQGTTLTVSS
VL: B5 VL with S33N, Y41F, L51S, L99V, W101P, G105A, D110E, I111L
notes: Human-murine chimeric antibody
